According to the nanobody polyreactivity screen of Harvey et al. (2022):

test: yeast display, Sf9 membrane polyspecificity reagent, FACS + sequencing; frameworks hold sequencing errors
Summary of the method: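 A synthetic nanobody library was expressed on Saccharomyces cerevisiae BJ5465 by galactose induction for 36–48 hours. The library was stained for 1 hour at 4 °C with 10% biotinylated, detergent-solubilized Sf9 membrane reagent and enriched with streptavidin microbeads before FACS. Low and high (top ~1%) gates were set on anti-HA fluorescence for expression and streptavidin fluorescence for reagent binding, and each polyreactivity label reflects the gate of origin.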

Sequence	polyreactivity (PSR sort gate)
QVQLVESGGGLVQAGGSLRLSCAASGRIFTANAMGCYIQAPGKERELVAAISWRGGSTYYADSVKGRFTISRDNAKNTVYLQMNSLKPEDTAVYYCNKVGATWRQWFGYWGQGTQVTVSS	high polyreactivity
QVQLVESGGGLVQAGGSLRLSCAASGRIFTGNAMGWYRQAPGKERELVAAISRRGTRTYYADSVKGRFTISRDNAKNTVYLQMNSLKPEDTAVYYCATRPGYWRYEYWGQGTQVTVSS	high polyreactivity
QVQLVESGGGLVQAGGSLRLSCAASGRIFTGNVMRWYRQAPGKERELVAAISYGGGSTNYSDSVKGRFTISRDNAKNTVYLQMNSLKQEDTAVYYCAACIKRYLSYYTRYGYWGQGTQVTVSS	high polyreactivity
QVQLVESGGGLVQAGGSLRLSCAASGRIFTGYAMGWYRQAPGKERELVAAINWSGGSTYYADSVKGRFTISRDNAKNTVYLQMNSLKPADTAVYYCNAGYVFSGSYYKYDYWGQGTQVTVSS	high polyreactivity
QVQLVESGGGLVQAGGSLRLSCAASGRIFTGYTMGWYRQAPGKERELVAGITGSSGSTYYADSVKGRFTISRDNAKNTVYLQMNSLKPEDTAVYYCAAGRRYRSVGYGYWGQGTQVTVSS	high polyreactivity
QVQLVESGGGLVQAGGSLRLSCAASGRIFTHNAMGWYRQAPGKERELVAAITSGGRTTYADSVKGRFTFSRDNAKNTVYLQMIRLKPEDTAVYYCNADTGLGSLDFDNRDYWGQGTQVTVSS	low polyreactivity
QVQLVESGGGLVQAGGSLRLSCAASGRIFTHNAMGWYRQAPGKERELVAAITSGGRTTYADSVKGRFTISRDNAKNTVYFQMNSLKPEDTAVYYCNADTGLGSLDFDKRDYWGQGTQVTVSS	low polyreactivity
QVQLVESGGGLVQAGGSLRLSCAASGRIFTINAMGWYRQAPGKERELVAAITGSAASTYYADSVKGRFTISRDNAKNTVYLQMNSLKPEDTAVYYCAAGYRRIPYEYWGQATQVTVSS	high polyreactivity
QVQLVESGGGLVQAGGSLRLSCAASGRIFTIYAMGWYRQAPGKERELVAAISDRGTRTYYADSVKGRFTISRDNAKNTVYLQMNSLKPEDTAVYYCATDALYTYGYDYWGQGTQVTVSS	low polyreactivity
QVQLVESGGGLVQAGGSLRLSCAASGRIFTIYAMGWYRQAPGKERELVATISRRGGSTYYADSVKGRFTISRDNSKNTVYLQMNSLKPEDTAVYYCAAESVITWWAYDYWGQGTQVTVSS	high polyreactivity
QVQLVESGGGLVQAGGSLRLSCAASGRIFTIYVMGWYRPAPGKERELVATITYSSGSTSYADSVKGRFTISRDNAKNTVYLQMNSLKPEDTAVYYCATDIHSVHNNRDKHDYDYWGQGTQVSVSS	low polyreactivity
QVQLVESGGGLVQAGGSLRLSCAASGRIFTKNTMGWYRQAPGKERELVAAIRSRAGSTYYADSVKGRFTISRDNAKNTVYLQMNSLKPEDTAVYYCAVPWFRSVDFDYWGQGTQVTVSS	low polyreactivity
QVQLVESGGGLVQAGGSLRLSCAASGRIFTKYPMGRYRQATGKERELVAAITSGGRTYYADSVKGRFTISRDNAKNTVYLQMNSLKPEDTAVYFCAARYVQVVRKFGFRGQGTQVTVSS	high polyreactivity
QVQLVESGGGLVQAGGSLRLSCAASGRIFTLYDMGWYRQAPGKERELVAAISNSAGSTYYADSVKGRFTISRDNAKNTVYLQMNSLKPEDTAVYYCAAELWSWWGSRDYWGQGTQVTVSS	high polyreactivity
QVQLVESGGGLVQAGGSLRLSCAASGRIFTNNAMGWYRQAPGKERELVAAISKRGGSTYYADSVKGRFTISRDNAKNTVYLQMNSLKPEDTAVYYCNAREYIHWRGALGLFGSWGQGTQVTVSS	high polyreactivity
QVQLVESGGGLVQAGGSLRLSCAASGRIFTNNAMGWYRQAPGKERELVAAISRSGGRTYYADSVKGRFTISRDNAKNTVYLQMNSLKPEDTAVYYCAAVHLYYGYNSPFTMDYWGQGTQVTVSS	high polyreactivity
QVQLVESGGGLVQAGGSLRLSCAASGRIFTNNAMGWYRQEPGKERELVAAISRSGGRTYYADSVKGRFTISRDIAKNTVYLQMNSLKPEDTAVYYCAAVHLFYGYNSPFTMDYWGQGTQVTVSS	high polyreactivity
QVQLVESGGGLVQAGGSLRLSCAASGRIFTNYAMGWYRQAPGKERELVATINGGGITNYADSVKVRFTISRDNAKNTVYLQMNSLKPEDNAVYYCATDRLSYGYKPGYTFYYWEQGTQVTVSS	high polyreactivity
QVQLVESGGGLVQAGGSLRLSCAASGRIFTPYAMGWYRKAPGKERELGAVIRDGSTYYADSVKGRFTISRDNAKNTVYLQMNRLKPEDTAVYYCAAVNYYDQYGDYYWGQGTQVTVSS	low polyreactivity
QVQLVESGGGLVQAGGSLRLSCAASGRIFTQYAMGWYRQAPGKERELVAAISYGGGTTHYADSVKGRFTISRDNAKNTVYLQMNSLKPEDTAVYYCAADGGRQVYTQLYDYWGQGTQVTVSS	low polyreactivity
QVQLVESGGGLVQAGGSLRLSCAASGRIFTRNAMGWYRQAPGKEREFVAAISYRGGSTYYADSVKGRFTISRDYAKNTVYLQMNSLKPEDTAVYYCAAEPYIQWVYYGGNGRRYGYWGQGTQVTVSS	high polyreactivity
QVQLVESGGGLVQAGGSLRLSCAASGRIFTRNAMGWYRQAPGKERELVAAITSGGSTNYADSVKGRFTISRDNAKNTVYLQMNSLKPEDTAVYYCNAVYYPYRIWGRVRPSYGYWGQGTQVTVSS	high polyreactivity

Sequence	polyreactivity (PSR sort gate)
QVQLVESGGGLVQAGGSLRLSCAASGRIFTRNTMGWYRQAPGKERELVAAITSRGGSTYYADSVKGRFTISRDNAKITVYLQMNSLKPEETAVYYCAADIPRYYYYWGQGTQVTVSS	high polyreactivity
QVQLVESGGGLVQAGGSLRLSCAASGRIFTRYAMGWYRQAPGKERELVAAINYRGSSTYYADSVKGRFTISRDNAKNTVYLQMNSLKPEDTAVYYCNTYGQTDTYWRYYYWGQGTQVTVSS	high polyreactivity
QVQLVESGGGLVQAGGSLRLSCAASGRIFTRYAMGWYRQAPGKERELVAAITGSGGSTYYADSVKGRFTISRDNAKNTVYLQMNSLKPEDTAVYYCNKVTGRNADRYGYWGQGTQVTVSS	high polyreactivity
QVQLVESGGGLVQAGGSLRLSCAASGRIFTRYAMGWYRQAPWKERELVAVITRSGGSTYYADSVKGRFTISRDNAKNTVYFKMNSLIPEDTAVYYCAVRPYELHRLADQPGGDDYWGQGTQVTVSS	low polyreactivity
QVQLVESGGGLVQAGGSLRLSCAASGRIFTSNTMGWYRQAPGKERELVAAITWRVGSTYYADSVKGRFTISRDNAKNTVYLQMNSLKPEDTAVYYCNAVVLHVTTDNSTFTTDDYWGQGTQVTVSS	low polyreactivity
QVQLVESGGGLVQAGGSLRLSCAASGRIFTSYAMGWYRQAPGKERELVAAINRGGSTYYADSVKGRFTISRDNAKNTVYLQMNSLKPEDTAVYYCAAGTRSRAPYYRTIVDTYGYWGQGTQVTVSS	low polyreactivity
QVQLVESGGGLVQAGGSLRLSCAASGRIFTSYAMGWYRQAPGKERELVAAISGSSASTYYADSVKGRFTISRDNAKNTVYLQMNSLKPEDTAVYYCAAYKYDYRVDTGYDYWGQGTQVTVSS	low polyreactivity
QVQLVESGGGLVQAGGSLRLSCAASGRIFTTYAMGWYRQAPGKERELVAAISRSGGSTYYADSVKGRFTISRDNAKNSVYLQMNSLKPEDTAVYYCAAVPTSNSFRSSFYYWGQGTQVTVSS	high polyreactivity
QVQLVESGGGLVQAGGSLRLSCAASGRIFTTYAMGWYRQAPGKERELVARISSGGTTYYADSVKGRFTISRDNAKNTVYLQMNSLKPEDTAVYYCNVRAVTPTRSRPFRYDYWGQGTQVTVSS	high polyreactivity
QVQLVESGGGLVQAGGSLRLSCAASGRIFTWNAMGWYRQAPGKERDLVARISSGTRTNYADSVKGRFTISRDNAKNTVYLQMNSLKPEDTAVYYCAAQSRPPFVKQYWWQRDYWGQGTQVTVSS	high polyreactivity
QVQLVESGGGLVQAGGSLRLSCAASGRIFTWNAMGWYRQAPGKERELVATINRGGNTNYADSVKGRFTISRDNAKNTVYLQMNSLKPEDTAVYYCAARYHYSNLYRFAYGYWGQGTQVTVSS	high polyreactivity
QVQLVESGGGLVQAGGSLRLSCAASGRIFTYMGWYRQAPGKERELVAGISWRGTSTYYADSVKGRFTISRDNAKNTVYLQMNSLKPEDTAVYYCAAPWAYHVRGDYWGQGTQVTVSS	low polyreactivity
QVQLVESGGGLVQAGGSLRLSCAASGRIFTYNAMGWYRQAPGKERELVAVITSGGSTYYADSVKGRFTISRDNAKNTVYLQMNSLKPEDTAVYYCAARVWGSSQYYYWGQGTQVTVSS	low polyreactivity
QVQLVESGGGLVQAGGSLRLSCAASGRIFTYYAMGWYRQAPGKERELVAAITWSGTGTYYADSVKGRFTISRDNAKNTVYLQMNSLKPEDTAVYYCNRRHALASSYYYWGQGTQVTVSS	low polyreactivity
QVQLVESGGGLVQAGGSLRLSCAASGRIFTYYAMGWYRQAPGKERELVASITGSGGSTDYADSVKGRFTISRDNAKNTVYLQMNSLKPEDTAVYYCAADHSGVSRYDYWGQGTQVTVSS	low polyreactivity
QVQLVESGGGLVQAGGSLRLSCAASGRIFVANGLGWYRQAPGKERELVAAITWSGDNTYYADSVKGRFTISRDNAKNTVYLQMNSLKPEDTAVYYCATPRSWYFPYGYWGQGTQVTVSS	high polyreactivity
QVQLVESGGGLVQAGGSLRLSCAASGRIFVAYTMGWYRQAPGKERELVAAISTNGGRTYYADSVKGRFTISRDNAKNTVYLQMNSLKPEDTAVYYCAAYRGPRADYYWGQGTQVTVSS	high polyreactivity
QVQLVESGGGLVQAGGSLRLSCAASGRIFVDNTMGWYRQAPGKEREFVAVISTSGGRTSYADSVKGRFTISRDNAKNTVYLQMNSLKPEDTAVYYCNALYGRYGWSKNYYWGQGTQVTVSS	high polyreactivity
QVQLVESGGGLVQAGGSLRLSCAASGRIFVDYAMGWERQAPGKERELVAAITYGGGSTHYADSVKGRFTISRDNAKNTVYLQMNSLKPEDTAVYYCAADLFYHSYGYEYWGQGTQGTVSS	low polyreactivity
QVQLVESGGGLVQAGGSLRLSCAASGRIFVENAMGWYRQAPRKERELVAAITSRGGSTYYADSVKGRFTISRDNAKNTVYLQMNSLKPEDTAVYYCNAGKYSRFLYDHNYWGQGTQVTVSS	high polyreactivity
QVQLVESGGGLVQAGGSLRLSCAASGRIFVFNAMGWYRQAPGKERELVATIDRGGSTNYADSVKGRFTISRDNAKNTVYLQMNSLKPEDTAVYYCAAGVVGKRSRTGYYWGQGTQVTVSS	low polyreactivity
